Results published in patent CN118459575A.

Molecular target: 新型冠状病毒SARS-CoV-2和SARS-CoV以及动物来源的SARS-like冠状病毒S1
Test: ELISA, S1 coated at 2 μg/mL, antibody titrated

B1: 广谱抗sarbecovirus和/或新冠突变株的抗体 SCM12-61 (antibody, V domains shown)
VH: QVQLVESGGGVVQPGRSLRLSCATSGFTFRSSAMHWVRQAPGKGLEWVAVIWFDGIKKYYTDSVKGRFTISRDNSKNTLYLQMNSLGAEDTAVYYCARDRAREFYPGPHCGDECYSSDAFDVWGQGTTVIVSS
VL: DIQMTQSPSSLSASVGDRVTITCRASQDINTYLNWYQQKSGRAPKFLIYAASSLQSGIPSRFSGSGSGTDFTLTIDSLQPEDFATYYCQQSHSIPYTFGQGTKLEIKR
EC50: 0.0239 to 0.0405 µg/mL
